Source: patent publication US20120316071A1 (published 2012)

Target: T1, Recombinant Human DLL4 (delta-like protein 4) (human, UniProt Q9NR61 27-524)
T1 construct: also called rHuman DLL4; Delta-like 4
Test: ELISA, DLL4 coated on plate, Fab at 100 nM

| Binder | ELISA Signal-blank (100 nM Fab) |
| --- | --- |
| Fab VH5-51_IGHD5-18*01>3_IGHJ4*01 G100K/G104T G24T/S28R/G35V & V3-4_IGLJ1*01 V91L/S96P T53I (Fab, V domains shown, Fab expressed in E. coli; heavy chain vector adds CH1 with His6 and Flag tags, light chain vector adds lambda CL; also called H:KT TRV & L:LP T53I) VH: EVQLVQSGAEVKKPGESLKISCKTSGYRFTSYWIVWVRQMPGKGLEWMGIIYPGDSDTRYSPSFQGQVTISADKSISTAYLQWSSLKASDTAMYYCARRKYSYTYDYFDYWGQGTLVTVSS VL: QTVVTQEPSFSVSPGGTVTLTCGLSSGSVSTSYYPSWYQQTPGQAPRTLIYSINTRSSGVPDRFSGSILGNKAALTITGAQADDESDYYCLLYMGPGISYVFGTGTKVTVL | 0.3 |
| Fab VH5-51_IGHD5-18*01>3_IGHJ4*01 G100K/G104T G24T/S28R/G35V & V3-4_IGLJ1*01 V91L/S96P T53P (Fab, V domains shown, Fab expressed in E. coli; heavy chain vector adds CH1 with His6 and Flag tags, light chain vector adds lambda CL; also called H:KT TRV & L:LP T53P) VH: EVQLVQSGAEVKKPGESLKISCKTSGYRFTSYWIVWVRQMPGKGLEWMGIIYPGDSDTRYSPSFQGQVTISADKSISTAYLQWSSLKASDTAMYYCARRKYSYTYDYFDYWGQGTLVTVSS VL: QTVVTQEPSFSVSPGGTVTLTCGLSSGSVSTSYYPSWYQQTPGQAPRTLIYSPNTRSSGVPDRFSGSILGNKAALTITGAQADDESDYYCLLYMGPGISYVFGTGTKVTVL | 0.39 |
| Fab VH5-51_IGHD5-18*01>3_IGHJ4*01 G100K/G104T G24T/S28R/G35V & V3-4_IGLJ1*01 V91L/S96P T53Y (Fab, V domains shown, Fab expressed in E. coli; heavy chain vector adds CH1 with His6 and Flag tags, light chain vector adds lambda CL; also called H:KT TRV & L:LP T53Y) VH: EVQLVQSGAEVKKPGESLKISCKTSGYRFTSYWIVWVRQMPGKGLEWMGIIYPGDSDTRYSPSFQGQVTISADKSISTAYLQWSSLKASDTAMYYCARRKYSYTYDYFDYWGQGTLVTVSS VL: QTVVTQEPSFSVSPGGTVTLTCGLSSGSVSTSYYPSWYQQTPGQAPRTLIYSYNTRSSGVPDRFSGSILGNKAALTITGAQADDESDYYCLLYMGPGISYVFGTGTKVTVL | 0.22 |
| Fab VH5-51_IGHD5-18*01>3_IGHJ4*01 G100K/G104T G24T/S28R/G35V & V3-4_IGLJ1*01 V91L/S96P T53K (Fab, V domains shown, Fab expressed in E. coli; heavy chain vector adds CH1 with His6 and Flag tags, light chain vector adds lambda CL; also called H:KT TRV & L:LP T53K) VH: EVQLVQSGAEVKKPGESLKISCKTSGYRFTSYWIVWVRQMPGKGLEWMGIIYPGDSDTRYSPSFQGQVTISADKSISTAYLQWSSLKASDTAMYYCARRKYSYTYDYFDYWGQGTLVTVSS VL: QTVVTQEPSFSVSPGGTVTLTCGLSSGSVSTSYYPSWYQQTPGQAPRTLIYSKNTRSSGVPDRFSGSILGNKAALTITGAQADDESDYYCLLYMGPGISYVFGTGTKVTVL | 0.12 |
| Fab VH5-51_IGHD5-18*01>3_IGHJ4*01 G100K/G104T G24T/S28R/G35V & V3-4_IGLJ1*01 V91L/S96P T53S (Fab, V domains shown, Fab expressed in E. coli; heavy chain vector adds CH1 with His6 and Flag tags, light chain vector adds lambda CL; also called H:KT TRV & L:LP T53S) VH: EVQLVQSGAEVKKPGESLKISCKTSGYRFTSYWIVWVRQMPGKGLEWMGIIYPGDSDTRYSPSFQGQVTISADKSISTAYLQWSSLKASDTAMYYCARRKYSYTYDYFDYWGQGTLVTVSS VL: QTVVTQEPSFSVSPGGTVTLTCGLSSGSVSTSYYPSWYQQTPGQAPRTLIYSSNTRSSGVPDRFSGSILGNKAALTITGAQADDESDYYCLLYMGPGISYVFGTGTKVTVL | 0.18 |
| Fab VH5-51_IGHD5-18*01>3_IGHJ4*01 G100K/G104T G24T/S28R/G35V & V3-4_IGLJ1*01 V91L/S96P T53Q (Fab, V domains shown, Fab expressed in E. coli; heavy chain vector adds CH1 with His6 and Flag tags, light chain vector adds lambda CL; also called H:KT TRV & L:LP T53Q) VH: EVQLVQSGAEVKKPGESLKISCKTSGYRFTSYWIVWVRQMPGKGLEWMGIIYPGDSDTRYSPSFQGQVTISADKSISTAYLQWSSLKASDTAMYYCARRKYSYTYDYFDYWGQGTLVTVSS VL: QTVVTQEPSFSVSPGGTVTLTCGLSSGSVSTSYYPSWYQQTPGQAPRTLIYSQNTRSSGVPDRFSGSILGNKAALTITGAQADDESDYYCLLYMGPGISYVFGTGTKVTVL | 0.11 |
| Fab VH5-51_IGHD5-18*01>3_IGHJ4*01 G100K/G104T G24T/S28R/G35V & V3-4_IGLJ1*01 V91L/S96P T53L (Fab, V domains shown, Fab expressed in E. coli; heavy chain vector adds CH1 with His6 and Flag tags, light chain vector adds lambda CL; also called H:KT TRV & L:LP T53L) VH: EVQLVQSGAEVKKPGESLKISCKTSGYRFTSYWIVWVRQMPGKGLEWMGIIYPGDSDTRYSPSFQGQVTISADKSISTAYLQWSSLKASDTAMYYCARRKYSYTYDYFDYWGQGTLVTVSS VL: QTVVTQEPSFSVSPGGTVTLTCGLSSGSVSTSYYPSWYQQTPGQAPRTLIYSLNTRSSGVPDRFSGSILGNKAALTITGAQADDESDYYCLLYMGPGISYVFGTGTKVTVL | 0.18 |
| Fab VH5-51_IGHD5-18*01>3_IGHJ4*01 G100K/G104T G24T/S28R/G35V & V3-4_IGLJ1*01 V91L/S96P T53N (Fab, V domains shown, Fab expressed in E. coli; heavy chain vector adds CH1 with His6 and Flag tags, light chain vector adds lambda CL; also called H:KT TRV & L:LP T53N) VH: EVQLVQSGAEVKKPGESLKISCKTSGYRFTSYWIVWVRQMPGKGLEWMGIIYPGDSDTRYSPSFQGQVTISADKSISTAYLQWSSLKASDTAMYYCARRKYSYTYDYFDYWGQGTLVTVSS VL: QTVVTQEPSFSVSPGGTVTLTCGLSSGSVSTSYYPSWYQQTPGQAPRTLIYSNNTRSSGVPDRFSGSILGNKAALTITGAQADDESDYYCLLYMGPGISYVFGTGTKVTVL | 0.15 |
| Fab VH5-51_IGHD5-18*01>3_IGHJ4*01 G100K/G104T G24T/S28R/G35V & V3-4_IGLJ1*01 V91L/S96P T53V (Fab, V domains shown, Fab expressed in E. coli; heavy chain vector adds CH1 with His6 and Flag tags, light chain vector adds lambda CL; also called H:KT TRV & L:LP T53V) VH: EVQLVQSGAEVKKPGESLKISCKTSGYRFTSYWIVWVRQMPGKGLEWMGIIYPGDSDTRYSPSFQGQVTISADKSISTAYLQWSSLKASDTAMYYCARRKYSYTYDYFDYWGQGTLVTVSS VL: QTVVTQEPSFSVSPGGTVTLTCGLSSGSVSTSYYPSWYQQTPGQAPRTLIYSVNTRSSGVPDRFSGSILGNKAALTITGAQADDESDYYCLLYMGPGISYVFGTGTKVTVL | 0.29 |

Target: T2, Recombinant Human DLL4 (delta-like protein 4) (human, UniProt Q9NR61 27-524)
T2 construct: Bought recombinant human DLL4 (R&D Systems Cat#1506-D4/CF); also called rHuman DLL4; Delta-like ligand 4
Test: SPR, Fab on recombinant human DLL4

| Binder | Kd [nM] | koff [s⁻¹] | kon [M⁻¹ s⁻¹] |
| --- | --- | --- | --- |
| Fab VH1-46_IGHD6-6*01_IGHJ1*01 & L6_IGKJ1*01 (Fab, V domains shown, Fab expressed in E. coli; VH was cloned into Plasmid A (heavy chain CH1 constant region, His6 and Flag tags) and VL into Plasmid C (kappa CL); also called parental; wildtype) VH: QVQLVQSGAEVKKPGASVKVSCKASGYTFTSYYMHWVRQAPGQGLEWMGIINPSGGSTSYAQKFQGRVTMTRDTSTSTVYMELSSLRSEDTAVYYCAREEYSSSSAEYFQHWGQGTLVTVSS VL: not shown | 730 | 0.101 | 163000 |
| Fab VH1-46_IGHD6-6*01_IGHJ1*01 S102A/S103P/S104F/H111Y (APFY) & L6_IGKJ1*01 (Fab, V domains shown, Fab with CH1 (Plasmid A, His6 and Flag tags) and kappa CL (Plasmid C)) VH: QVQLVQSGAEVKKPGASVKVSCKASGYTFTSYYMHWVRQAPGQGLEWMGIINPSGGSTSYAQKFQGRVTMTRDTSTSTVYMELSSLRSEDTAVYYCAREEYAPFSAEYFQYWGQGTLVTVSS VL: not shown | 93.1 | 0.0317 | 340000 |
| Fab VH1-46_IGHD6-6*01_IGHJ1*01 S102A/S103P/S104F (APF) & L6_IGKJ1*01 S31K (Fab, V domains shown, Fab with CH1 (Plasmid A, His6 and Flag tags) and kappa CL (Plasmid C)) VH: QVQLVQSGAEVKKPGASVKVSCKASGYTFTSYYMHWVRQAPGQGLEWMGIINPSGGSTSYAQKFQGRVTMTRDTSTSTVYMELSSLRSEDTAVYYCAREEYAPFSAEYFQHWGQGTLVTVSS VL: EIVLTQSPATLSLSPGERATLSCRASQSVSKYLAWYQQKPGQAPRLLIYDASNRATGIPARFSGSGSGTDFTLTISSLEPEDFAVYYCQQRSNWPPWTFGQGTKVEIKR | 112 | 0.0392 | 350000 |
| Fab VH1-46_IGHD6-6*01_IGHJ1*01 S104F & L6_IGKJ1*01 (Fab, V domains shown, Fab with CH1 (Plasmid A, His6 and Flag tags) and kappa CL (Plasmid C)) VH: QVQLVQSGAEVKKPGASVKVSCKASGYTFTSYYMHWVRQAPGQGLEWMGIINPSGGSTSYAQKFQGRVTMTRDTSTSTVYMELSSLRSEDTAVYYCAREEYSSFSAEYFQHWGQGTLVTVSS VL: not shown | 380 | 0.19 | 500000 |
| Fab VH1-46_IGHD6-6*01_IGHJ1*01 S102A/S103P/S104F/H111F (APFF) & L6_IGKJ1*01 (Fab, V domains shown, Fab with CH1 (Plasmid A, His6 and Flag tags) and kappa CL (Plasmid C); also called H:APFF & L:wt) VH: QVQLVQSGAEVKKPGASVKVSCKASGYTFTSYYMHWVRQAPGQGLEWMGIINPSGGSTSYAQKFQGRVTMTRDTSTSTVYMELSSLRSEDTAVYYCAREEYAPFSAEYFQFWGQGTLVTVSS VL: not shown | 70.6 | 0.03 | 425000 |
| Fab VH1-46_IGHD6-6*01_IGHJ1*01 S102A/S103P/S104F/H111F I51V/N52L/S54T/G56H (APFF VLTH) & L6_IGKJ1*01 S28N/S30D/S31H (NDH) (Fab, V domains shown, Fab with CH1 (Plasmid A, His6 and Flag tags) and kappa CL (Plasmid C); also called H:APFF VLTH & L:NDH) VH: QVQLVQSGAEVKKPGASVKVSCKASGYTFTSYYMHWVRQAPGQGLEWMGIVLPTGHSTSYAQKFQGRVTMTRDTSTSTVYMELSSLRSEDTAVYYCAREEYAPFSAEYFQFWGQGTLVTVSS VL: EIVLTQSPATLSLSPGERATLSCRASQNVDHYLAWYQQKPGQAPRLLIYDASNRATGIPARFSGSGSGTDFTLTISSLEPEDFAVYYCQQRSNWPPWTFGQGTKVEIKR | 2.7 | 0.00113 | 430000 |
| Fab VH1-46_IGHD6-6*01_IGHJ1*01 S102A/S103P/S104F/H111F G56H (APFF G56H) & L6_IGKJ1*01 (Fab, V domains shown, Fab with CH1 (Plasmid A, His6 and Flag tags) and kappa CL (Plasmid C)) VH: QVQLVQSGAEVKKPGASVKVSCKASGYTFTSYYMHWVRQAPGQGLEWMGIINPSGHSTSYAQKFQGRVTMTRDTSTSTVYMELSSLRSEDTAVYYCAREEYAPFSAEYFQFWGQGTLVTVSS VL: not shown | 32.7 | 0.0101 | 351000 |
| Fab VH1-46_IGHD6-6*01_IGHJ1*01 S102A/S103P/S104F (APF) & L6_IGKJ1*01 (Fab, V domains shown, Fab with CH1 (Plasmid A, His6 and Flag tags) and kappa CL (Plasmid C); also called H:APF & L:wt; APF triple mutant) VH: QVQLVQSGAEVKKPGASVKVSCKASGYTFTSYYMHWVRQAPGQGLEWMGIINPSGGSTSYAQKFQGRVTMTRDTSTSTVYMELSSLRSEDTAVYYCAREEYAPFSAEYFQHWGQGTLVTVSS VL: not shown | 122 | 0.0492 | 405000 |
